T1: human FcγRIIB (human, UniProt P31994 43-217)
T1 construct: bought
T1 sequence (looked up): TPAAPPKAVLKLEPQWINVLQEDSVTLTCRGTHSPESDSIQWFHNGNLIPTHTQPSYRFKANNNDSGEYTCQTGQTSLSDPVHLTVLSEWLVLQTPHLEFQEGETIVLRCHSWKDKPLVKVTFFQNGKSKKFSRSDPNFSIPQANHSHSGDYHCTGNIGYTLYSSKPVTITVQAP

T2: human FcγRIIA (R131) (human, UniProt P12318 34-218, limits assumed)
T2 construct: bought; R131 allele
T2 sequence (looked up): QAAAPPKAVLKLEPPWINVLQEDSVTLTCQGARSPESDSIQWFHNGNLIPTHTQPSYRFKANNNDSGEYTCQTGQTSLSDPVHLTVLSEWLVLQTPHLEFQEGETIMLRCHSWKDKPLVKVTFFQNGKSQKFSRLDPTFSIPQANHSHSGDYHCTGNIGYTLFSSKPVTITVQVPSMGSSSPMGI

T3: mouse FcγRI (mouse, UniProt P26151 25-297)
T3 construct: bought; captured on anti-histidine chip
T3 sequence (looked up): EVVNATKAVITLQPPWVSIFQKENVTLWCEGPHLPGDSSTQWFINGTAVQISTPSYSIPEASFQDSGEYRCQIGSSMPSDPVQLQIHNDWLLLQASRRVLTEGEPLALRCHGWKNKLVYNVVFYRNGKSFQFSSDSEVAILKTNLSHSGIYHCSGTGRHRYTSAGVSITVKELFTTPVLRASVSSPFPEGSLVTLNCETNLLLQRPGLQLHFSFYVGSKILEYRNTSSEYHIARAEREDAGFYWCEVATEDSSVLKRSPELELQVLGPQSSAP

T4: rat FcγRI (rat, UniProt A0A0B4J2J0 16-285)
T4 construct: bought; captured on anti-histidine chip
T4 sequence: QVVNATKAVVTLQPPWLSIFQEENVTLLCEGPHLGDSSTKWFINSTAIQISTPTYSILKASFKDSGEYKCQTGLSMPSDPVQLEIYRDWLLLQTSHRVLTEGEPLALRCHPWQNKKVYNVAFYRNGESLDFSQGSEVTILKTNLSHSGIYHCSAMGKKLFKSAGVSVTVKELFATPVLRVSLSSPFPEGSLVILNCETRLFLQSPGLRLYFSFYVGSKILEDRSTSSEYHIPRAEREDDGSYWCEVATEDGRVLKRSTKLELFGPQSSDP

B1: anti-CD52 (alemtuzumab variable regions) human IgG1 wild type reference (antibody)
heavy: not shown
light: not shown
notes: also called 4-1; wild-type CD52 antibody
B2: anti-CD20 (rituximab) human IgG1 wild-type reference (antibody)
heavy: not shown
light: QIVLSQSPAILSASPGEKVTMTCRASSSVSYIHWFQQKPGSSPKPWIYATSNLASGVPVRFSGSGSGTSYSLTISRVEAEDAATYYCQQWTSNPPTFGGGTKLEIKRTVAAPSVFIFPPSDEQLKSGTASVVCLLNNFYPREAKVQWKVDNALQSGNSQESVTEQDSKDSTYSLSSTLTLSKADYEKHKVYACEVTHQGLSSPVTKSFNRGEC
notes: 2-1 and 10.0 are separate lots from HEK293; also called 2-1; 10.0
B3: anti-CD20 human IgG1 L234A/L235A (LALA) (antibody)
heavy: not shown
light: QIVLSQSPAILSASPGEKVTMTCRASSSVSYIHWFQQKPGSSPKPWIYATSNLASGVPVRFSGSGSGTSYSLTISRVEAEDAATYYCQQWTSNPPTFGGGTKLEIKRTVAAPSVFIFPPSDEQLKSGTASVVCLLNNFYPREAKVQWKVDNALQSGNSQESVTEQDSKDSTYSLSSTLTLSKADYEKHKVYACEVTHQGLSSPVTKSFNRGEC
notes: 2-65 and 10.16 are separate lots; also called 2-65; 10.16
B4: anti-CD20 human IgG1 L234S/L235T/G236R (antibody)
heavy: QVQLQQPGAELVKPGASVKMSCKASGYTFTSYNMHWVKQTPGRGLEWIGAIYPGNGDTSYNQKFKGKATLTADKSSSTAYMQLSSLTSEDSAVYYCARSTYYGGDWYFNVWGAGTTVTVSSASTKGPSVFPLAPSSKSTSGGTAALGCLVKDYFPEPVTVSWNSGALTSGVHTFPAVLQSSGLYSLSSVVTVPSSSLGTQTYICNVNHKPSNTKVDKKVEPKSCDKTHTCPPCPAPESTRGPSVFLFPPKPKDTLMISRTPEVTCVVVDVSHEDPEVKFNWYVDGVEVHNAKTKPREEQYNSTYRVVSVLTVLHQDWLNGKEYKCKVSNKALPAPIEKTISKAKGQPREPQVYTLPPSRDELTKNQVSLTCLVKGFYPSDIAVEWESNGQPENNYKTTPPVLDSDGSFFLYSKLTVDKSRWQQGNVFSCSVMHEALHNHYTQKSLSLSPGK
light: QIVLSQSPAILSASPGEKVTMTCRASSSVSYIHWFQQKPGSSPKPWIYATSNLASGVPVRFSGSGSGTSYSLTISRVEAEDAATYYCQQWTSNPPTFGGGTKLEIKRTVAAPSVFIFPPSDEQLKSGTASVVCLLNNFYPREAKVQWKVDNALQSGNSQESVTEQDSKDSTYSLSSTLTLSKADYEKHKVYACEVTHQGLSSPVTKSFNRGEC
notes: also called 2-52; 1-150
B5: anti-CD20 human IgG1 L234A/L235A/P329G (LALAPG reference) (antibody)
heavy: not shown
light: QIVLSQSPAILSASPGEKVTMTCRASSSVSYIHWFQQKPGSSPKPWIYATSNLASGVPVRFSGSGSGTSYSLTISRVEAEDAATYYCQQWTSNPPTFGGGTKLEIKRTVAAPSVFIFPPSDEQLKSGTASVVCLLNNFYPREAKVQWKVDNALQSGNSQESVTEQDSKDSTYSLSSTLTLSKADYEKHKVYACEVTHQGLSSPVTKSFNRGEC
notes: also called 2-66

Experiments:
[1] = biological target: T5, CD3D/CD3E heterodimer (Sino Biologicals Cat. No. CT038-H2508H) (human, UniProt P04234 22-105; P07766 23-126); experiment: ELISA, antigen coated, antibody 5 µg/mL
T5 construct: bought; also called CD3 antigen; human CD3

[2] = biological target: T6, Sheep Fc-CD52 fusion protein (Absolute Antibody Cat. No. PR00205) (human, UniProt P31358 25-36); experiment: ELISA, antigen coated, antibody 5 µg/mL
T6 construct: bought; also called CD52 antigen; human CD52; not shown: sheep Fc

[3] = biological target: T5, CD3D/CD3E heterodimer (Sino Biologicals …); experiment: ELISA, antigen coated
[4] = biological target: T7, human FcγRIIIA (F158) (human, UniProt P08637 17-208); experiment: SPR, FcγRIIIA captured
T7 construct: bought; F158 allele

[5] = biological target: T8, Histidine-tagged recombinant human FcγRI (CD64) (human, UniProt P12314 16-288, limits assumed); experiment: SPR, His-FcγRI captured; CHO-produced; Expt 2 Rep 1;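 also: antibody analyte injected at 100 µg/mL for 1 min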
T8 construct: bought

[6] = biological target: T8, Histidine-tagged recombinant human …; experiment: SPR, His-FcγRI captured; CHO-produced; Expt 1 Rep 2;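 also: antibody analyte injected at 100 µg/mL for 1 min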
[7] = biological target: T1, human FcγRIIB; experiment: SPR, receptor captured on anti-His chip
[8] = biological target: T9, human FcγRIIIB (NA2 allotype) (human, UniProt O75015 17-200, limits assumed); experiment: SPR, receptor captured on anti-His chip
T9 construct: bought; NA2 allotype

[9] = biological target: T7, human FcγRIIIA (F158); experiment: SPR, receptor captured on anti-His chip
[10] = biological target: T2, human FcγRIIA (R131); experiment: SPR, receptor captured on anti-His chip
[11] = biological target: T10, rabbit FcγRI (rabbit); experiment: SPR, receptor captured on anti-His chip
T10 construct: bought; captured on anti-histidine chip

[12] = biological target: T8, Histidine-tagged recombinant human …; experiment: SPR, receptor captured on anti-His chip
[13] = biological target: T3, mouse FcγRI; experiment: SPR, receptor captured on anti-His chip
[14] = biological target: T4, rat FcγRI; experiment: SPR, receptor captured on anti-His chip
[15] = biological target: T8, Histidine-tagged recombinant human …; experiment: SPR, His-FcγRI captured; mean;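 also: biacore T200 SPR at 25 °C, anti-His surface capturing FcγRI, Fc-variant antibodies injected at 100 µg/mL for 1 min, signal near injection end minus third buffer blank, three repeats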
[16] = biological target: T8, Histidine-tagged recombinant human …; experiment: SPR, His-FcγRI captured; Expt 3;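 also: biacore T200 SPR at 25 °C, Fc-variant antibodies at 100 µg/mL flowed 1 min over anti-His-captured FcγRI, signal taken just before injection end minus a buffer blank cycle; antibody analyte injected at 100 µg/mL for 1 min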
[17] = biological target: T8, Histidine-tagged recombinant human …; experiment: SPR, His-FcγRI captured; Expt 1 Rep 1;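 also: antibody analyte injected at 100 µg/mL for 1 min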
[18] = biological target: T8, Histidine-tagged recombinant human …; experiment: SPR, His-FcγRI captured; CHO-produced; Expt 1 Rep 1;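 also: antibody analyte injected at 100 µg/mL for 1 min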
[19] = biological target: T11, human FcRn (human, UniProt P55899 24-297; P61769 21-119); experiment: SPR pH 6.0, FcRn captured; Expt 2
T11 construct: bought

[20] = biological target: T8, Histidine-tagged recombinant human …; experiment: SPR, His-FcγRI captured; Expt 1 Rep 2;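 also: antibody analyte injected at 100 µg/mL for 1 min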
[21] = biological target: T8, Histidine-tagged recombinant human …; experiment: SPR, His-FcγRI captured; Expt 2 Rep 1;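 also: antibody analyte injected at 100 µg/mL for 1 min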
[22] = biological target: T8, Histidine-tagged recombinant human …; experiment: SPR, His-FcγRI captured; CHO-produced; Expt 2 Rep 2;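 also: antibody analyte injected at 100 µg/mL for 1 min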
[23] = biological target: T8, Histidine-tagged recombinant human …; experiment: SPR, His-FcγRI captured; Expt 2;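 also: biacore T200 SPR at 25 °C, Fc-variant antibodies at 100 µg/mL flowed 1 min over anti-His-captured receptor, signal read near injection end minus third buffer blank; antibody analyte injected at 100 µg/mL for 1 min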
[24] = biological target: T11, human FcRn; experiment: SPR pH 6.0, FcRn captured; Expt 1
[25] = biological target: T12, cynomolgus monkey FcRn (cynomolgus monkey, UniProt Q8SPV9 24-297; Q8SPW0 21-119); experiment: SPR pH 6.0, FcRn captured
T12 construct: bought; also called cynomolgus FcRn

[26] = biological target: T8, Histidine-tagged recombinant human …; experiment: SPR, His-FcγRI captured; Expt 2 Rep 2;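 also: antibody analyte injected at 100 µg/mL for 1 min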
[27] = biological target: T8, Histidine-tagged recombinant human …; experiment: SPR, His-FcγRI captured; Expt 1;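 also: SPR at 25 °C on anti-His antibody chip capturing FcγRI, Fc-variant antibodies injected at 100 µg/mL for 1 min, signal near end of injection minus buffer blank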

T11 sequence (P55899 24-297 limits assumed, chain 1 of 2): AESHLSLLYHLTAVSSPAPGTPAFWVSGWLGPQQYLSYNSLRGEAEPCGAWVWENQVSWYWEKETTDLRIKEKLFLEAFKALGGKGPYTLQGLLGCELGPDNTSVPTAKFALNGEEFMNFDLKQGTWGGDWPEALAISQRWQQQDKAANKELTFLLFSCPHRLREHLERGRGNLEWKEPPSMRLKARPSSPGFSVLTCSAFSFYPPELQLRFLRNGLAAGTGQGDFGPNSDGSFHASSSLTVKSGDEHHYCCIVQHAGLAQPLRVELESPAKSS
T11 sequence (P61769 21-119 limits assumed, chain 2 of 2): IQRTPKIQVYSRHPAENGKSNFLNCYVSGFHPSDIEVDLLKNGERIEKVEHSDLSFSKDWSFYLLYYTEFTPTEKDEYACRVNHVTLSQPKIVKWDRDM
T7 sequence (P08637 17-208 limits assumed): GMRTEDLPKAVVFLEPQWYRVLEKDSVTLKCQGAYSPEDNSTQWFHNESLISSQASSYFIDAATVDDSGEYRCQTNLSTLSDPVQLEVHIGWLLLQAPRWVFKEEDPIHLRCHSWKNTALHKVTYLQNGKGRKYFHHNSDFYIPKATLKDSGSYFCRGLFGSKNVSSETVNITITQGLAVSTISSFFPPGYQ

Binder	Corrected response (RU) [5] [RU]	Corrected response (RU) [6] [RU]	Corrected response (RU) [7] [RU]	Corrected response (RU) [8] [RU]	Corrected response (RU) [9] [RU]	Corrected response (RU) [10] [RU]	Corrected response (RU) [11] [RU]	Corrected response (RU) [12] [RU]	Corrected response (RU) [13] [RU]	Corrected response (RU) [14] [RU]	Corrected response (RU), Mean [15] [RU]	Corrected response (RU) [17] [RU]	Corrected response (RU) [18] [RU]	Corrected response (RU) [19] [RU]	Corrected response (RU) [20] [RU]	Corrected response (RU) [21] [RU]	Corrected response (RU) [22] [RU]	Corrected response (RU) [23] [RU]	Corrected response (RU) [24] [RU]	Corrected response (RU) [25] [RU]	further results
B1	–	–	–	–	–	–	–	–	–	–	–	–	–	–	–	–	–	–	–	–	Mean Absorbance [1]: 0.009 absorbance; Mean Absorbance [2]: 1.53 absorbance; binding result [3]: no binding (tested: 5 µg/mL)
B2	1350	2180	175	501	889	345	2770	3020	1790	2220	2590	2370	2120	650	2380	1460	1390	2570	647	1440	Corrected response (RU) [4]: 588 RU; Corrected response (RU) [16]: 2600 RU
B3	452	577	13.2	16	57.4	21.8	141	832	6.3	2.3	–	752	597	614	654	524	440	–	612	1390	Corrected response (RU) [26]: 478 RU
B4	-9.2	-20.7	–	–	–	–	–	–	–	–	0.6	-23.8	-23.4	–	-12.1	-1	-8.9	0.3	–	–	Corrected response (RU) [27]: -0.5 RU
B5	–	–	-0.6	-1.6	-0.4	0.9	5.6	72.9	-0.2	0.5	–	53.4	–	557	40.7	62.4	–	–	543	1270	Corrected response (RU) [26]: 49.5 RU
